This note sets out measurements from patent publication US20060177894A1.

Assay [1] deals with rat lutropin receptor (LHR) (rat) (UniProt P16235). Description: cell-based or functional assay.
The target is the same in assay [2]. Description: receptor binding assay.
For assay [3] the target is unchanged. The experiment in a line: inhibition of 125I-hCG binding to CHO cells with rat LHR; from IC50; acid-stable hCGβ-S138C analog.

Chain of rat lutropin receptor (LHR) (rat) (P16235 27-700): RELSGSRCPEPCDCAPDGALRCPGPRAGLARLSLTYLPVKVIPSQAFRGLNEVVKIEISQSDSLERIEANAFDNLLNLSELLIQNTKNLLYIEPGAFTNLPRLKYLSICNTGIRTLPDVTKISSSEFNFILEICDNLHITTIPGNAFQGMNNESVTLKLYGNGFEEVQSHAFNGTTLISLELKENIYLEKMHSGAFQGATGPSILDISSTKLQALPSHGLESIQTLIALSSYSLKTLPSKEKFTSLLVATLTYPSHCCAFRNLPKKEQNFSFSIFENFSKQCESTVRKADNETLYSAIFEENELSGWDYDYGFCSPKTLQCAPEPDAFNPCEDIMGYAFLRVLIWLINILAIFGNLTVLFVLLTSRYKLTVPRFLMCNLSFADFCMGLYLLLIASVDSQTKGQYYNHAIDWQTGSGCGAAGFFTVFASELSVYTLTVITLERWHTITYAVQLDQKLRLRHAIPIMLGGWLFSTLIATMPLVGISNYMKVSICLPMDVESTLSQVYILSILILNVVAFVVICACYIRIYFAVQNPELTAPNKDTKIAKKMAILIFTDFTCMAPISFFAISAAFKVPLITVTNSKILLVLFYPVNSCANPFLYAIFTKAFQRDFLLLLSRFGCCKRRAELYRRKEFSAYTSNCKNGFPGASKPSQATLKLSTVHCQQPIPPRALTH

Turning to “analog containing the entire carboxyterminal residues of the hCG β-subunit attached to the α-subunit (from UniProt P01215 25-116) (ligand)”, the signaling assays in assay [1] is 50 % of hCG. Moreover, the activity relative to hCG in assay [2] is > 50 % of hCG.

Turning to “αY88C + hCGβ-S138C (from UniProt P01215 25-116; P0DN86 21-165) (ligand)”, the Receptor-Binding potency (percent hCG) in assay [3] was 0.05 % of hCG. Besides, the Signal transduction potency (cAMP accumulation), acid-stable analog in assay [1] was 0.12 % of hCG.

For the substance “αT86C + hCGβ-S138C (from UniProt P01215 25-116; P0DN86 21-165) (ligand)”, the Receptor-Binding potency (percent hCG) in assay [3] was 2.2 % of hCG. Moreover, the Signal transduction potency (cAMP accumulation), acid-stable analog in assay [1] was 0.18 % of hCG.
